Assay results from the RNAGym collection of RNA variant scans (doi:10.7554/elife.80360).

B1: Hammerhead Ribozyme (parent)
chain: ACCGGAUGUGCUUUCCGGUCUGAUGAGUCCGUGAGGACGAAACAG

Variants of: B1
Assay: self-cleavage, relative activity (ratio to wild type); higher = more cleavage; co-transcriptional

| Variant | self-cleavage |
| --- | --- |
| C15G G25C | 0.262 |
| G35C A37G | 0.563 |
| C11U G17U | 0.405 |
| U9A G27U | 0.585 |
| U28A G33C | 1.15 |
| U9A U14A | 1.07 |
| A6U U24C | 0.573 |
| U9C A23G | 0.361 |
| U9C A44U | 0.661 |
| C3G C16A | 0.39 |
| A1U U19G | 1.28 |
| G18U | 0.875 |
| A23G G35C | 0.279 |
| G25A C38U | 0.317 |
| A6C U19A | 0.265 |
| G10C C43G | 0.381 |
| C3U G36A | 0.617 |
| U14A G25A | 0.28 |
| G22A G31U | 0.427 |
| G18C C20A | 0.285 |
| U13C U21C | 1.23 |

| Variant | self-cleavage |
| --- | --- |
| U21G G33C | 0.867 |
| G33U A42C | 0.366 |
| U7A A23C | 0.434 |
| C20U C29U | 0.395 |
| U12A U14C | 0.946 |
| C30A C38G | 0.48 |
| U13C G17C | 0.573 |
| C3G A34C | 0.422 |
| U12A C30U | 1.07 |
| A41G C43A | 0.317 |
| C3A U9A | 0.476 |
| G10C A26G | 0.304 |
| A1U A44C | 0.574 |
| G18C A34U | 0.409 |
| G8U C11G | 1.21 |
| U12C C15G | 0.474 |
| U19G C43U | 0.336 |
| C2G A26U | 0.315 |
| G36A A37U | 0.533 |
| C16A C30G | 0.591 |
| G17A C29A | 0.441 |

| Variant | self-cleavage |
| --- | --- |
| G8U U21G | 0.571 |
| U12G G33A | 1.02 |
| U24C G33U | 0.854 |
| U21G G35C | 0.306 |
| G8U C15G | 0.637 |
| C3G G22C | 0.292 |
| C11U G36A | 0.607 |
| C15G A42U | 0.328 |
| C20U C30A | 0.464 |
| U12A C16G | 0.764 |
| C29G A40U | 0.325 |
| G22C G39C | 0.375 |
| A37G G39C | 0.371 |
| U19A G27C | 0.401 |
| U12A U24G | 1.23 |
| G5A C20G | 0.286 |
| A23G A40G | 0.306 |
| C30U A40C | 0.514 |
| C16A A26G | 0.37 |
| C11G C29G | 0.82 |
| C38A A40U | 0.307 |

| Variant | self-cleavage |
| --- | --- |
| U13C A34U | 1.12 |
| G22A A40U | 0.366 |
| G25A A44C | 0.38 |
| U12C G22A | 0.36 |
| G22C C30A | 0.346 |
| C3A G18A | 0.344 |
| G22U G33U | 0.416 |
| G4A A41C | 0.34 |
| U24A G36A | 0.669 |
| G5C A26C | 0.282 |
| C16G C43A | 0.337 |
| U21G G22U | 0.426 |
| C2U C30G | 0.876 |
| C20G A42U | 0.313 |
| G4A G36U | 0.37 |
| U19G U32A | 0.366 |
| G31U G45U | 0.933 |
| U24A C29A | 0.786 |
| U14G U19G | 0.422 |
| G17C G31A | 0.699 |
| C20G U21A | 0.286 |
